# Source: the supplement of paper PMC9170038
# Assays:
# [1] = system: MS2 coat protein; assay: apparent KD of MS2 coat protein, switch OFF state (with FMN for OFF switches, without FMN for ON switches); designed switch direction (-1 OFF switch, 1 ON switch): 1; higher = weaker reporter binding; conditions: FMN input: 0 or 200 uM; Eterna round: R93 (includes R88 designs)
# Summary of the method: (§1)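 Designed RNA switches were made by on-chip transcription from Illumina sequencing clusters and then titrated with SNAP-549-labelled MS2 coat protein. Twofold steps ran from 0.7 or 1.5 nM to 3 µM, each lasting 0.8–1.5 h early and 10–20 min late, in 100 mM Tris-HCl pH 7.5, 80 mM KCl, 4 mM MgCl2, without or with constant ligand. Apparent KD is the per-design median of normalised cluster binding-curve fits.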
# [2] = system: MS2 coat protein; assay: apparent KD of MS2 coat protein, switch ON state; designed switch direction (-1 OFF switch, 1 ON switch): 1; higher = weaker reporter binding; conditions: FMN input: 0 or 200 uM; Eterna round: R93 (includes R88 designs)
# Summary of the method: as §1
Sequence,apparent KD of MS2 coat protein [1],apparent KD of MS2 coat protein [2]
GGAAAACAUGAGGAUCACCCAUGUGAAAACGUGGGAGGAUAUGCAUGGAAACCAUACUGUGCAGAAGGCCCAUGUC [EteRNA is fun!],59.4 nM,17.2 nM
UAAGUACAUGAGGAUCACCCAUGUUGGAAUAGAGCAGGAUAUGUGCAGAGGGAAAUAAAAACAGAAGGGCUAAGAA [Same State #3],33 nM,25.9 nM
"GACAAACAUGAGGAUCACCCAUGUAGAAAUAUGGGAGGAUAUACACAGACGAAAGUCAAAGUAGAAGGCCUACAAG [77%, Mat - Mod of Eli - With 3 more C's]",103 nM,25.9 nM
AAAAGACAUGAGGAUCACCCAUGUAAAAACGUAGGAGGAUAUGUAUGGAAACCAGACUGUACAGAAGGCCUUUGUC [SS1 - 73],19.4 nM,20 nM
AAGAAACAUGAGGAUCACCCAUGUAGAAAUAUGGGAGGAUAUACAAGGACGGAAGUCAAGGUAGAAGGCCUAAGAA [Mat - Same State 1 - Meechl mod - D133],112 nM,26.7 nM
CCCAUACAUGAGGAUCACCCAUGUUUUAUUAACAGAGGAUAUAUAGGUGAAACAAACAACAUAGAAGGCUGCCCAA [Default title],53.2 nM,34.2 nM
AAUAUACAUGAGGAUCACCCAUGUUUUAAUAACUCAGGAUAUACAGGUGAAAACAGCAUAGUAGAAGGGAGAAAAA [SameState1 Malc#3],23.2 nM,18.2 nM
AUAAAACAUGAGGAUCACCCAUGUCAAGAGUAUUAAGGAUAUGAGCCAGGGAACUGGCGAUCAGAAGGUGAGACUC [Atxerexebe],46.7 nM,160 nM
UAAUAAUAAACCAAGGAUAUGGAGUAUAGAACAUGAGGAUCACCCAUGUGUAGCGUGGAAUAGUACCAGAAGGUGGAGUGAAAUG [JR_SS002_Sub1002],49.8 nM,39.1 nM
AAGAAACAUGAGGAUCACCCAUGUAAGAUAAACACAGGAUAUGCGAAAAUAAACAAAUAAGCAGAAGGGUGAAGAA [Mat - Same State 1 - Tesla mod - 65],28.1 nM,19.5 nM
AUAUAAAUAAGCUAGGAUAUACUAAAGUAAACAUGAGGAUCACCCAUGUGAAGAAAGAAACUCAUGUAGAAGGAGCAUAUAUAUA [viburnum 3],185 nM,45.6 nM
UUACAGUGCGGGUAGGAUAUGUAGGGUGGUACAUGAGGAUCACCCAUGUAUCCACCCUUCGACCGGCAGAAGGGCCUGUCACUAC [Atarzale],12.8 nM,12 nM
AGAAAUAAAAGACAGGAUAUCCAAAAGAAAACAUGAGGAUCACCCAUGUAAAGAAAAUAAAAAUGGGAGAAGGGUCAAAUAAAAA [Mat - Same State 2 - JL mod - D49],33.9 nM,34.4 nM
GGGAGGAAGAGAGAGGAUAUCCAAAGGAAAACAUGAGGAUCACCCAUGUAAAAGGUAGGAAAUUGGGAGAAGGCUCAAGAGAAUG [salish99-ss2-055],28.3 nM,24.1 nM
CGGAGACAUGAGGAUCACCCAUGUGAGAAGAGGCGAGGAUAUCGAAAGAAAGAAGAGAAACGAGAAGGCGCGAGUU [salish99-SS1-070],34.5 nM,21.5 nM
GAUGACAUAGUACAGGAUAUAUGAAUAGUCACAUGAGGAUCACCCAUGUGCAUUUAUAUGCGCACAUAGAAGGGUGGUAGUGAUC [Mat - Same state - Malcolm Mod - D126],49.8 nM,79.9 nM
GAGAGACAUGAGGAUCACCCAUGUAGGAUUAUGGGAGGAUAUACAAAGACGAGAGUCAGAGUAGAAGGCCUAGGAG [salish99-ss1-139],75.6 nM,25.4 nM
GAGGACAUAGUAUAGGAUAUAUGAAUAGUUACAUGAGGAUCACCCAUGUGCAUUUAUAUGCGAACAUAGAAGGGUGGUAGUUAUC [SameState2 Malc#31],75.1 nM,122 nM
"AUAUAUAUAAGGUAGGAUAUCCAAAAGUAAACAUGAGGAUCACCCAUGUAAAGAAAGAAACAAUGGGAGAAGGACCAUAUAUAUA [77%, More Tesla, 3]",24 nM,9.5 nM
AAUCCACAUGAGGAUCACCCAUGUCAGGAAAUGACAGGAUAUAGCGAAAAAAAAAAAAAGCUAGAAGGGUCUAAUU [SameState1-cac2],107 nM,31.3 nM
AAAAAACAUGAGGAUCACCCAUGUCCUCGGACGUGAGGAUAUGUACAGACUUCGGUCUGUACAGAAGGCAUGAAAA [SS1 - 1059],201 nM,432 nM
GUAGAACAUGAGGAUCACCCAUGUGAGUACAGUGUAGGAUAUGGGCAUGAGAAGUCAUUUCUAGAAGGGCAAAUAA [Raatbiin],112 nM,207 nM

Sequence,apparent KD of MS2 coat protein [1],apparent KD of MS2 coat protein [2]
AGAAAUAAAAGAGAGGAUAUCCAAAAGAAAACAUGAGGAUCACCCAUGUAAAAGAAAAUAAAAUGGGAGAAGGCUCACAUAAAGA [Topaz 34],37.4 nM,21.1 nM
UGCCAAUUGGCACAGGAUAUGAGCAUGCUCACAUGAGGAUCACCCAUGUGAUUACCAACGCAAUAUCAGAAGGGUGCCCUCGUCA [Relageor],50.4 nM,32.1 nM
AAAAACAUGGUGUAGGAUAUAUUAAUAGUCACAUGAGGAUCACCCAUGUUCAGAUAUCUGAACGAGUAGAAGGACGAUGAAAAAA [Mat - Same state - Malcolm Mod - D109],349 nM,454 nM
AAAAAACAUGAGGAUCACCCAUGUGCAAAAUUCGCAGGAUAUUCCUCAAUUAAAUGAGAGGAAGAAGGGUGAAAAA [Nob's Hobby 26 - Jieux - Same State 1],171 nM,21.3 nM
AAGAAACAUGAGGAUCACCCAUGUAAGAUAAACACAGGAUAUGCAAAAGAAAGAAAGAAAGCAGAAGGGUGAAGAA [Mat - Same State 1 - Tesla mod - 50],42.3 nM,15.7 nM
AUAAAACAUGAGGAUCACCCAUGUAGACAUAUGGGAGGAUAUACUAGAUCGAAAGAUCUAGUAGAAGGUCUUAAAA [JL Mod of Eli 10],183 nM,205 nM
AAAAAACAUGAGGAUCACCCAUGUCAAAAGACAUGAGGAUAUGUGUGGAAACCAUACUAUACAGAAGGCAUAAAAA [SS1 - 1008],159 nM,105 nM
GGGAGACAUGAGGAUCACCCAUGUGAGAAGAGGCGAGGAUAUCGAAAGAAAGAAGAGAAACGAGAAGGCGCGAGGC [salish99-SS1-063],53.6 nM,37.5 nM
AAUAAAAAUAGUUAGGAUAUGAGAACUAGGACAUGAGGAUCACCCAUGUAACUAGAACAAGUAAAUCAGAAGGGACAGGGUGAAA [JR_SS002_Sub203],19 nM,41.9 nM
AUAAAACAUGAGGAUCACCCAUGUCCGACAAAUCAAGGAUAUGAGAGCAAAACCAGGCUGUUAGAAGGUGAAAGAA [Atlausa],154 nM,154 nM
AAAAAAAAGGGUGAGGAUAUAGAAAAAAAAACAUGAGGAUCACCCAUGUGAAAAAAAAAAAAAAGCUAGAAGGCACAAAAAAAAAA [Same State 2],159 nM,79.2 nM
AAAAGACAUGAGGAUCACCCAUGUGAAAACGUGCGAGGAUAUGUGUGGAAACCGUACUAUACAGAAGGCGCGUGUC [SS1 - 84],33.9 nM,22.2 nM
AUAAGAAAAACACAGGAUAUCCAAAAGAAAACAUGAGGAUCACCCAUGUAAAGAAAAUAAAAAUGGGAGAAGGGUGAAAAUAAUA [Mat - Same State 2 - JL mod - D32],62.2 nM,28.1 nM
UGCAGGAAGAGAGAGGAUAUCCAAAGGAAAACAUGAGGAUCACCCAUGUAAAAGGUAGGAAAUUGGGAGAAGGCUCAAGAGAGAG [salish99-ss2-098],28.3 nM,33.1 nM
AACGAACAUGAGGAUCACCCAUGUUCCAGCAGUUGAGGAUAUGUGGGUGAAAAUAGCACGGCAGAAGGCGAGUGUA [SameState1 Malc#22],82.1 nM,79.8 nM
GGUACAGCUAGUUAGGAUAUCAGGUGUAAGACAUGAGGAUCACCCAUGUCCUAAGAACAGGUAACUGAGAAGGAACAGGGCGUCC [JR_SS002_Sub415],90 nM,27.3 nM
CGGCUACAUGAGGAUCACCCAUGUCAGCCGAGGGCAGGAUAUGCGGUUCAUUCUCAAGCAGCAGAAGGGUCAAAAG [Onmabiat],8.83 nM,12.8 nM
UGGAGACAUGAGGAUCACCCAUGUGAGAAGAGGCGAGGAUAUCGAAAGAAAGAAGAGAAACGAGAAGGCGCGAGGC [salish99-SS1-047],27.6 nM,43.3 nM
AAAGAAUGAAGGCAGGAUAUGUGAAAAAAAACAUGAGGAUCACCCAUGUAAUAGAUGGUGAAAAGGCAGAAGGGCCAAGAAACAA [SS 2 Tesla 6],199 nM,12.4 nM
CACAGAGUGGCGUAGGAUAUGUACAUGAGUACAUGAGGAUCACCCAUGUGGGCGUGAAAUUACGAGCAGAAGGGCGUCGCCUGUG [Edradi],135 nM,24.4 nM
AUAAUAAAAACACAGGAUAUCCAAAAGAAAACAUGAGGAUCACCCAUGUAAAGAAAAUAAAAAUGGGAGAAGGGUGAAAUAAAUA [Mat - Same State 2 - JL mod - D34],42.9 nM,37.4 nM
